Among the data in patent US20110135573A1, “METALLOPROTEINASE 9 AND METALLOPROTEINASE 2 BINDING PROTEINS” (DYAX CORP., priority 2009, published 2011) are Ki values, retold here.

Assay [1] concerns the target mouse MMP-2 (R&D Systems #924-MP-010) (mouse) (UniProt P33434). The assay is described as follows: Ki,app, enzyme inhibition assay (fluorogenic peptide substrate), medium-scale sFab.
Assay [2] shares this target. As to the kind of experiment: Ki,app, enzyme inhibition assay (fluorogenic peptide substrate), small-scale sFab.
The target is the same in assay [3]. As to the kind of experiment: Ki,app, enzyme inhibition assay (fluorogenic peptide substrate), IgG.

B1: M0301-D12 (Fab, V domains shown)
VH: EVQLLESGGGLVQPGGSLRLSCAASGFTFSMYDMWWVRQAPGKGLEWVSVIYSSGGYTSYADSVKGRFTISRDNSKNTLYLQMNSLRAEDTAVYYCAKDRAYGDYVGWNGFDYWGQGTLVTVSS
VL: DIQMTQSPATLSLSPGERATLSCRASQSISSFLAWYQQKPGQAPRLLIYDASYRATGIPARFSGSGSGTDFTLTISSLEPEDYAVYYCQQRGNWPITFGQGTRLEIK
For B1, the Ki in assay [1] and in assay [2] was 25 nM each time.

B2: M0273-A11 (Fab, V domains shown)
VH: EVQLLESGGGLVQPGGSLRLSCAASGFTFSRYDMWWVRQAPGKGLEWVSVISPSGGATFYADSVKGRFTISRDNSKNTLYLQMNSLRAEDTAVYYCAKDRAYGDYVGWNGFDYWGQGTLVTVSS
VL: DIQMTQSPATLSLSPGERATLSCRASQSISSFLAWYQQKPGQAPRLLIYDASYRATGIPARFSGSGSGTDFTLTISSLEPEDYAVYYCQQRGNWPITFGQGTRLEIK
Regarding B2, the Ki in assay [1] and in assay [2] was 32 nM throughout.

B3: M0272-H08 (Fab, V domains shown)
VH: EVQLLESGGGLVQPGGSLRLSCAASGFTFSAYDMWWVRQAPGKGLEWVSVIYPSGGTTFYADSVKGRFTISRDNSKNTLYLQMNSLRAEDTAVYYCAKDRAYGDYVGWNGFDYWGQGTLVTVSS
VL: DIQMTQSPATLSLSPGERATLSCRASQSISSFLAWYQQKPGQAPRLLIYDASYRATGIPARFSGSGSGTDFTLTISSLEPEDYAVYYCQQRGNWPITFGQGTRLEIK
Take B3: the Ki in assay [1] and in assay [2] was 46 nM each time.

B4: 539A-M0237-D02 hIgG1 (antibody, V domains shown)
VH: EVQLLESGGGLVQPGGSLRLSCAASGFTFSQYPMWWVRQAPGKGLEWVSYIVPSGGRTYYADSVKGRFTISRDNSKNTLYLQMNSLRAEDTAVYYCAKDRAYGDYVGWNGFDYWGQGTLVTVSS
VL: DIQMTQSPATLSLSPGERATLSCRASQSISSFLAWYQQKPGQAPRLLIYDASYRATGIPARFSGSGSGTDFTLTISSLEPEDYAVYYCQQRGNWPITFGQGTRLEIK
As to B4, in assay [3], the Ki was 76 nM.

B5: M0256-D11 (Fab, V domains shown)
VH: EVQLLESGGGLVQPGGSLRLSCAASGFTFSHYDMWWVRQAPGKGLEWVSVIYSSGGPTFYADSVKGRFTISRDNSKNTLYLQMNSLRAEDTAVYYCAKDRAYGDYVGWNGFDYWGQGTLVTVSS
VL: DIQMTQSPATLSLSPGERATLSCRASQSISSFLAWYQQKPGQAPRLLIYDASYRATGIPARFSGSGSGTDFTLTISSLEPEDYAVYYCQQRGNWPITFGQGTRLEIK
Turning to B5, the Ki in assay [1] and in assay [2] was 4.2 nM in each case.

B6: M0275-E12 (Fab, V domains shown)
VH: EVQLLESGGGLVQPGGSLRLSCAASGFTFSHYDMWWVRQAPGKGLEWVSVIYSSGGFTGYADSVKGRFTISRDNSKNTLYLQMNSLRAEDTAVYYCAKDRAYGDYVGWNGFDYWGQGTLVTVSS
VL: DIQMTQSPATLSLSPGERATLSCRASQSISSFLAWYQQKPGQAPRLLIYDASYRATGIPARFSGSGSGTDFTLTISSLEPEDYAVYYCQQRGNWPITFGQGTRLEIK
With B6, the Ki in assay [1] and in assay [2] was 15 nM each time.

B7: X0106-C03 (antibody, V domains shown)
VH: EVQLLESGGGLVQPGGSLRLSCAASGFTFSVYDMWWVRQAPGKGLEWVSVIYPSGGATYYADSVKGRFTISRDNSKNTLYLQMNSLRAEDTAVYYCAKDRAYGDYVGWNGFDYWGQGTLVTVSS
VL: EIVLTQSPATLSLSPGERATLSCRASQSISSFLAWYQQKPGQAPRLLIYDASYRATGIPARFSGSGSGTDFTLTISSLEPEDFAVYYCQQRGNWPITFGQGTRLEIK
As for B7, the Ki in assay [3] came to 3.2 nM.

B8: X0106-E04 (antibody, V domains shown)
VH: EVQLLESGGGLVQPGGSLRLSCAASGFTFSQYDMWWVRQAPGKGLEWVSVIYPSGTTFYADSVKGRFTISRDNSKNTLYLQMNSLRAEDTAVYYCAKDRAYGDYVGWNGFDYWGQGTLVTVSS
VL: EIVLTQSPATLSLSPGERATLSCRASQSISSFLAWYQQKPGQAPRLLIYDASYRATGIPARFSGSGSGTDFTLTISSLEPEDFAVYYCQQRGNWPITFGQGTRLEIK
As for B8, in assay [3], the Ki came to 3.9 nM.

B9: M0301-A09 (Fab, V domains shown)
VH: EVQLLESGGGLVQPGGSLRLSCAASGFTFSYYDMWWVRQAPGKGLEWVSVIYPSGGYTAYADSVKGRFTISRDNSKNTLYLQMNSLRAEDTAVYYCAKDRAYGDYVGWNGFDYWGQGTLVTVSS
VL: DIQMTQSPATLSLSPGERATLSCRASQSISSFLAWYQQKPGQAPRLLIYDASYRATGIPARFSGSGSGTDFTLTISSLEPEDYAVYYCQQRGNWPITFGQGTRLEIK
As for B9, the Ki in assay [1] and in assay [2] was 21 nM each time.

B10: M0273-B10 (Fab, V domains shown)
VH: EVQLLESGGGLVQPGGSLRLSCAASGFTFSKYAMIWVRQAPGKGLEWVSWIPPSGGYTSYADSVKGRFTISRDNSKNTLYLQMNSLRAEDTAVYYCAKDRAYGDYVGWNGFDYWGQGTLVTVSS
VL: DIQMTQSPATLSLSPGERATLSCRASQSISSFLAWYQQKPGQAPRLLIYDASYRATGIPARFSGSGSGTDFTLTISSLEPEDYAVYYCQQRGNWPITFGQGTRLEIK
Consider B10, for which the Ki in assay [1] and in assay [2] was 59 nM throughout.

B11: M0273-C10 (Fab, V domains shown)
VH: EVQLLESGGGLVQPGGSLRLSCAASGFTFSFYPMWWVRQAPGKGLEWVSYIYPSGGATFYADSVKGRFTISRDNSKNTLYLQMNSLRAEDTAVYYCAKDRAYGDYVGWNGFDYWGQGTLVTVSS
VL: DIQMTQSPATLSLSPGERATLSCRASQSISSFLAWYQQKPGQAPRLLIYDASYRATGIPARFSGSGSGTDFTLTISSLEPEDYAVYYCQQRGNWPITFGQGTRLEIK
Regarding B11, the Ki in assay [1] and in assay [2] was 18 nM throughout.

B12: X0106-B02 (antibody, V domains shown)
VH: EVQLLESGGGLVQPGGSLRLSCAASGFTFSWYDMWWVRQAPGKGLEWVSVIYSSGGPTFYADSVKGRFTISRDNSKNTLYLQMNSLRAEDTAVYYCAKDRAYGDYVGWNGFDYWGQGTLVTVSS
VL: EIVLTQSPATLSLSPGERATLSCRASQSISSFLAWYQQKPGQAPRLLIYDASYRATGIPARFSGSGSGTDFTLTISSLEPEDFAVYYCQQRGNWPITFGQGTRLEIK
On to B12, for which the Ki in assay [3] was 4.2 nM.

B13: M0307-F04 (Fab, V domains shown)
VH: EVQLLESGGGLVQPGGSLRLSCAASGFTFSLYDMWWVRQAPGKGLEWVSVIYSSGGYTGYADSVKGRFTISRDNSKNTLYLQMNSLRAEDTAVYYCAKDRAYGDYVGWNGFDYWGQGTLVTVSS
VL: DIQMTQSPATLSLSPGERATLSCRASQSISSFLAWYQQKPGQAPRLLIYDASYRATGIPARFSGSGSGTDFTLTISSLEPEDYAVYYCQQRGNWPITFGQGTRLEIK
On to B13, for which the Ki in assay [1] and in assay [2] was 2.2 nM throughout.

B14: M0299-A12 (Fab, V domains shown)
VH: EVQLLESGGGLVQPGGSLRLSCAASGFTFSHYPMWWVRQAPGKGLEWVSYISSSGGGTFYADSVKGRFTISRDNSKNTLYLQMNSLRAEDTAVYYCAKDRAYGDYVGWNGFDYWGQGTLVTVSS
VL: DIQMTQSPATLSLSPGERATLSCRASQSISSFLAWYQQKPGQAPRLLIYDASYRATGIPARFSGSGSGTDFTLTISSLEPEDYAVYYCQQRGNWPITFGQGTRLEIK
Take B14: the Ki in assay [1] and in assay [2] was 30 nM in each case.

B15: M0275-D03 (Fab, V domains shown)
VH: EVQLLESGGGLVQPGGSLRLSCAASGFTFSQYDMWWVRQAPGKGLEWVSVIYPSGTTFYADSVKGRFTISRDNSKNTLYLQMNSLRAEDTAVYYCAKDRAYGDYVGWNGFDYWGQGTLVTVSS
VL: DIQMTQSPATLSLSPGERATLSCRASQSISSFLAWYQQKPGQAPRLLIYDASYRATGIPARFSGSGSGTDFTLTISSLEPEDYAVYYCQQRGNWPITFGQGTRLEIK
As for B15, the Ki in assay [1] and in assay [2] was 5.4 nM each time.

B16: X0106-F05 (antibody, V domains shown)
VH: EVQLLESGGGLVQPGGSLRLSCAASGFTFSLYDMWWVRQAPGKGLEWVSVIYSSGGYTGYADSVKGRFTISRDNSKNTLYLQMNSLRAEDTAVYYCAKDRAYGDYVGWNGFDYWGQGTLVTVSS
VL: EIVLTQSPATLSLSPGERATLSCRASQSISSFLAWYQQKPGQAPRLLIYDASYRATGIPARFSGSGSGTDFTLTISSLEPEDFAVYYCQQRGNWPITFGQGTRLEIK
The molecule B16 registered a Ki in assay [3] of 3 nM.

B17: M0276-F11 (Fab, V domains shown)
VH: EVQLLESGGGLVQPGGSLRLSCAASGFTFSWYDMWWVRQAPGKGLEWVSVIYSSGGPTFYADSVKGRFTISRDNSKNTLYLQMNSLRAEDTAVYYCAKDRAYGDYVGWNGFDYWGQGTLVTVSS
VL: DIQMTQSPATLSLSPGERATLSCRASQSISSFLAWYQQKPGQAPRLLIYDASYRATGIPARFSGSGSGTDFTLTISSLEPEDYAVYYCQQRGNWPITFGQGTRLEIK
For the molecule B17, the Ki in assay [1] and in assay [2] was 3.7 nM each time.

B18: M0273-G07 (Fab, V domains shown)
VH: EVQLLESGGGLVQPGGSLRLSCAASGFTFSHYDMWWVRQAPGKGLEWVSVIYPSGGPTYYADSVKGRFTISRDNSKNTLYLQMNSLRAEDTAVYYCAKDRAYGDYVGWNGFDYWGQGTLVTVSS
VL: DIQMTQSPATLSLSPGERATLSCRASQSISSFLAWYQQKPGQAPRLLIYDASYRATGIPARFSGSGSGTDFTLTISSLEPEDYAVYYCQQRGNWPITFGQGTRLEIK
Turning to B18, the Ki in assay [1] and in assay [2] was 22 nM throughout.

B19: M0274-G08 (Fab, V domains shown)
VH: EVQLLESGGGLVQPGGSLRLSCAASGFTFSVYDMWWVRQAPGKGLEWVSVIYPSGGATYYADSVKGRFTISRDNSKNTLYLQMNSLRAEDTAVYYCAKDRAYGDYVGWNGFDYWGQGTLVTVSS
VL: DIQMTQSPATLSLSPGERATLSCRASQSISSFLAWYQQKPGQAPRLLIYDASYRATGIPARFSGSGSGTDFTLTISSLEPEDYAVYYCQQRGNWPITFGQGTRLEIK
Take B19: the Ki in assay [1] and in assay [2] was 2.7 nM each time.
